Values quoted from earlier work in publication PMC2953804.

Molecular target: Mlh1 (Saccharomyces cerevisiae) (UniProt P38920)

Question: For Mlh1 (from UniProt P38920), which Kd is on record?
Answer: 3.14 µM
